{"source": "patent US20220054617A1", "about": "“SUBUNIT VACCINE CONSTRUCTS FOR FLAVIVIRUSES” (priority 2018, published 2022)", "molecules": {"B1": {"name": "SGp(L)-DENV-3: SGp(L) fusion of DENV-3 antigen, SEQ ID NO: 40 (protein)", "chain": "MHHHHHHSTSLAEAKVLANRELDKYGVSDYYKNLINNAKTVEGVKALIDEILAALPKGTLKGMSYAMCTNTFVLKKEVSETQHGTILIKVEYKGEDAPCKIPFSTEDGQGKAHNGRLITANPVVTKKEEPVNIEAEPPFGESNIVIGIGDNALKINWYKK"}, "B2": {"name": "DENV-3: DENV-3 E-glycoprotein subunit antigen, SEQ ID NO: 4 (protein)", "chain": "SNALKGMSYAMCTNTFVLKKEVSETQHGTILIKVEYKGEDAPCKIPFSTEDGQGKAHNGRLITANPVVTKKEEPVNIEAEPPFGESNIVIGIGDNALKINWYKK", "modifications": "Dengue virus 3"}, "B3": {"name": "SGp(L)-DENV-2: SGp(L) fusion of DENV-2 antigen, SEQ ID NO: 39 (protein)", "chain": "MHHHHHHSTSLAEAKVLANRELDKYGVSDYYKNLINNAKTVEGVKALIDEILAALPKGTQLKGMSYSMCTGKFKVVKEIAETQHGTIVVRVQYEGDGSPCKIPFEIMDLEKRHVLGRLITVNPIVTEKDSPVNIEAEPPFGDSYIIIGVEPGQLKLSWFKK"}}, "key": {"DENV-3": {"test_system": "DENV-3", "assay": "Seroconversion, DENV-3-specific IgG titers", "assay_type": "in vivo, rabbits", "settings": "three immunization regimes of Table 8", "description": "(§1) Pre-immune test-bleeds are first obtained from adult New Zealand White rabbits via venipuncture of the marginal vein of the ear on Day 1. The rabbits are immunized intramuscularly in the flank region with (a) 10 μg of antigen in 0.2 mL saline (n=4 for non-adjuvanted, antigen+saline control cohort), or (b) 10 μg of antigen plus 100 μg of adjuvant in 0.2 mL saline (n=4 for antigen+adjuvant test cohorts). An aqueous formulation for all adjuvants and antigens is ensured. Animals are immunized on Days 1, 15, and 28. A final test-bleed is performed via the marginal vein of the ear on Day 38. Sera may be banked at −80° C. for further analysis.\n(§2) Rabbits (n=4/cohort) were immunized with 10 μg each antigen per dose as described in the Standardized Rabbit Model of Immunogenicity modified as shown in Table 8."}, "DENV-1": {"test_system": "DENV-1", "assay": "ADE / protection against DENV-1 by rabbit antisera (CPE/cell death, 4G2 immunostain)", "assay_type": "cell-based, dengue virus", "settings": "in vitro challenge"}, "ZIKV antigen": {"biological_target": "T1, ZIKV antigen (Zika virus, UniProt Q32ZE1)", "T1 construct": "made in house; host or cells: E. coli BL21(DE3)-pRARE", "T1 sequence (Q32ZE1 582-689, looked up, natural form)": "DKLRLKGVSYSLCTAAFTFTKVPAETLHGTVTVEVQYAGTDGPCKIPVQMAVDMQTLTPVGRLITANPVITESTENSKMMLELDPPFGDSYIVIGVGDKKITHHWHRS", "assay": "Serological cross reactivity matrix (ELISA), ZIKV antigen", "assay_type": "binding", "settings": "Immune-2 rabbit sera", "excerpt": "(§3) FIG. 10B-FIG. 10C show exemplary results of a serological cross reactivity matrix. Immune-2 sera from rabbits immunized with the 6 antigens were screened by ELISA for homologous titers. Samples with highest titers were examined for immunoreactivity with all antigens. […] DENV-1 Ag is recognized by anti-DENV-3 and anti-ZIKV antisera. Conversely, anti-DENV-3 antisera recognizes ZIKV antigen. Anti-ZIKV antisera recognizes WNV antigen very strongly."}, "DENV-1 antigen": {"biological_target": "T2, DENV-1 antigen (Dengue virus type 1, UniProt P17763, A649T/F617I/M577V/S619T/V660I)", "T2 construct": "made in house; host or cells: E. coli BL21(DE3)-pRARE", "T2 sequence (P17763 571-673, looked up, stated change not applied)": "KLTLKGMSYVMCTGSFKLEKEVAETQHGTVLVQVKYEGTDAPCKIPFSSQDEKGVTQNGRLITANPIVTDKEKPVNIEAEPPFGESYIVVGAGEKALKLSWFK", "assay": "Serological cross reactivity matrix (ELISA), DENV-1 antigen", "assay_type": "binding", "settings": "Immune-2 rabbit sera", "excerpt": "as §3"}, "DENV-4": {"test_system": "DENV-4", "assay": "ADE / protection against DENV-4 by rabbit antisera (CPE/cell death, 4G2 immunostain)", "assay_type": "cell-based, dengue virus", "settings": "in vitro challenge"}, "DENV-2": {"test_system": "DENV-2", "assay": "Seroconversion, DENV-2-specific IgG titers", "assay_type": "in vivo, rabbits", "settings": "three immunization regimes of Table 8", "description": "as §1, §2"}}, "note": "“Also recorded” adds a separate entry of the source.", "data": [{"molecule": "B1", "values": [{"measurement": "seroconversion (DENV-3-specific IgG titers)", "setting": "DENV-3", "result": "equivalence between all three immunization regimes"}]}, {"molecule": "B2", "values": [{"measurement": "protection / neutralization against DENV-1 (heterologous)", "setting": "DENV-1", "result": "neutralizes; also recorded: prominent heterologous protection"}, {"measurement": "cross-reactivity of antisera with ZIKV antigen", "setting": "ZIKV antigen", "result": "reciprocal cross-reactivity was evident; also recorded: recognizes"}, {"measurement": "cross-reactivity of antisera with DENV-1 antigen", "setting": "DENV-1 antigen", "result": "Significant cross-reactivity; also recorded: recognized"}, {"measurement": "protection / neutralization against DENV-4 (heterologous)", "setting": "DENV-4", "result": "neutralizes"}]}, {"molecule": "B3", "values": [{"measurement": "seroconversion (DENV-2-specific IgG titers)", "setting": "DENV-2", "result": "equivalence between all three immunization regimes"}]}]}
